The source of these data is publication PMC9834252 (Nature Communications, 2023).

Broadly, the Kd is the free concentration of one partner at which half of the binding sites on the other are occupied at equilibrium, for simple one-to-one binding. Read a high Kd as weaker binding.

The target in this assay is T1, M1-linked di-Ub (UniProt P0CG48 1-76; P0CG48 1-76).
T1 construct: ubiquitin, distal protomer (its C-terminus joined to M1 of the next); ubiquitin, proximal protomer (free C-terminus); also called M1 di-Ub; linear di-Ub; source: E. coli, purified (acid precipitation, cation exchange, SEC)
The experiment in a line: ITC; M1-linked di-Ub and HOIL-1 (WT or I358R), direct binding; who was titrated and the concentrations are not told; 25 °C, 10 mM HEPES pH 7.9, 100 mM NaCl. The conditions noted are these: both partners purified. For orientation: ITC needs no label: the signal is the heat of the interaction.

B1: HOIL-1 helix-RBR (WT) (domain or fragment, human, UniProt Q9BYM8 233-510, looked up)
chain: DEEERARLAGEEEALRQYQQRKQQQQEGNYLQHVQLDQRSLVLNTEPAECPVCYSVLAPGEAVVLRECLHTFCRECLQGTIRNSQEAEVSCPFIDNTYSCSGKLLEREIKALLTPEDYQRFLDLGISIAENRSAFSYHCKTPDCKGWCFFEDDVNEFTCPVCFHVNCLLCKAIHEQMNCKEYQEDLALRAQNDVAARQTTEMLKVMLQQGEAMRCPQCQIVVQKKDGCDWIRCTVCHTEICWVTKGPRWGPGGPGDTSGGCRCRVNGIPCHPSCQNCH
notes: HOIL-1, human, residues 233-510 (N-terminal helix and RBR module); also called WT HOIL-1; HOIL-1 233-510 (helix-RBR); source: E. coli BL21(DE3), purified (Ni-NTA, SEC)
Regarding B1, the equilibrium dissociation constant (Kd) was ~50 µM.
